{"source": "patent US9708383", "about": "(Novo Nordisk, dated 2017)", "binders": {"B1": {"name": "GLP-1 derivative of Example 132: [Aib8,Lys8,Glu22,Gln34]-GLP-1-(7-37)-peptide amide (peptide)", "peptide": "H[Aib]EGTFTSDVSK([AEEA-AEEA-γGlu-Decanoyl(10-(4-HOOC-PhO))])YLEEQAAK([AEEA-AEEA-γGlu-Decanoyl(10-(4-HOOC-PhO))])EFIAWLVQGRG-NH2", "modifications": "N-terminus assumed", "SMILES": "CC[C@H](C)[C@H](NC(=O)[C@H](Cc1ccccc1)NC(=O)[C@H](CCC(=O)O)NC(=O)[C@H](CCCCNC(=O)COCCOCCNC(=O)COCCOCCNC(=O)CC[C@H](NC(=O)CCCCCCCCCOc1ccc(C(=O)O)cc1)C(=O)O)NC(=O)[C@H](C)NC(=O)[C@H](C)NC(=O)[C@H](CCC(N)=O)NC(=O)[C@H](CCC(=O)O)NC(=O)[C@H](CCC(=O)O)NC(=O)[C@H](CC(C)C)NC(=O)[C@H](Cc1ccc(O)cc1)NC(=O)[C@H](CCCCNC(=O)COCCOCCNC(=O)COCCOCCNC(=O)CC[C@H](NC(=O)CCCCCCCCCOc1ccc(C(=O)O)cc1)C(=O)O)NC(=O)[C@H](CO)NC(=O)[C@@H](NC(=O)[C@H](CC(=O)O)NC(=O)[C@H](CO)NC(=O)[C@@H](NC(=O)[C@H](Cc1ccccc1)NC(=O)[C@@H](NC(=O)CNC(=O)[C@H](CCC(=O)O)NC(=O)C(C)(C)NC(=O)[C@@H](N)Cc1c[nH]cn1)[C@@H](C)O)[C@@H](C)O)C(C)C)C(=O)N[C@@H](C)C(=O)N[C@@H](Cc1c[nH]c2ccccc12)C(=O)N[C@@H](CC(C)C)C(=O)N[C@H](C(=O)N[C@@H](CCC(N)=O)C(=O)NCC(=O)N[C@@H](CCCNC(=N)N)C(=O)NCC(N)=O)C(C)C", "notes": "Name prints Lys8, evidently Lys18"}}, "note": "*1 amine or outer side, *2 acyl side, *3 side chain or, on linkers, in order; H or OH if unused. Where no end group is shown, it is not given here. Side-chain parts run from the residue outwards. [ ]: non-standard residue; d: D form. The star is where a group is joined. Decanoyl(10-(4-HOOC-PhO)) = O=C(O)c1ccc(OCCCCCCCCCC(=O)*)cc1; γGlu = O=C(O)[C@H](CCC(=O)[*:2])N[*:1]; Desaminohistidyl = O=C(CCc1c[nH]cn1)*; Hexanoyl(6-Ph) = O=C(CCCCCc1ccccc1)*; C12 diacid = O=C(O)CCCCCCCCCCC(=O)*; Butanoyl(4-Ph) = O=C(CCCc1ccccc1)*; 12Ado = NCCCCCCCCCCCC(=O)O; AEEA = NCCOCCOCC(=O)O; Aib = CC(C)(N)C(=O)O; Aoc = NCCCCCCCC(=O)O"}
{"molecular_target": "T1, human GLP-1 receptor (human, UniProt P43220 24-463)", "T1 construct": "whole, on cells; Used as purified membranes of the transfected hamster cells, not whole cells; also called hGLP-1", "experiment": "SPA, 2.0% vs 0.005% HSA"}
{"binder": "H[Aib]EGTFTSDVSK([AEEA-AEEA-γGlu-4‑(4-chlorophenyl)butanoyl])YLEEQAAK([AEEA-AEEA-γGlu-4‑(4-chlorophenyl)butanoyl])EFIAWLVQGRG", "note": "[GLP-1 derivative of Example 121: [Aib8,Lys18,Glu22,Gln34]-GLP-1-(7-37)-peptide]", "ratio IC50 high HSA/IC50 low HSA": "> 1"}
{"binder": "B1", "ratio IC50 high HSA/IC50 low HSA": "> 1"}
{"binder": "H[Aib]EGTFTSDVSK([AEEA-AEEA-γGlu-Aoc-γGlu-Butanoyl(4-Ph)])YLEEQAAK([AEEA-AEEA-γGlu-Aoc-γGlu-Butanoyl(4-Ph)])EFIAWLVQGRG", "note": "[GLP-1 derivative of Example 109: [Aib8,Lys18,Glu22,Gln34]-GLP-1-(7-37)-peptide]", "ratio IC50 high HSA/IC50 low HSA": "> 1"}
{"binder": "H[Aib]EGTFTSDVSK([AEEA-AEEA-γGlu-12Ado-γGlu-2‑phenylacetyl])YLEEQAAK([AEEA-AEEA-γGlu-12Ado-γGlu-2‑phenylacetyl])EFIAWLVQGRG", "note": "[GLP-1 derivative of Example 128: [Aib8,Lys18,Glu22,Gln34]-GLP-1-(7-37)-peptide]", "ratio IC50 high HSA/IC50 low HSA": "> 1"}
{"binder": "H[Aib]EGTFTSDVSK([AEEA-AEEA-γGlu-4‑(4-nitrophenyl)butanoyl])YLEEQAAK([AEEA-AEEA-γGlu-4‑(4-nitrophenyl)butanoyl])EFIAWLVQGRG", "note": "[GLP-1 derivative of Example 122: [Aib8,Lys18,Glu22,Gln34]-GLP-1-(7-37)-peptide]", "ratio IC50 high HSA/IC50 low HSA": "> 1"}
{"binder": "H[Aib]EGTFTSDVSK([AEEA-AEEA-γGlu-Hexanoyl(6-Ph)])YLEEQAAK([AEEA-AEEA-γGlu-Hexanoyl(6-Ph)])EFIAWLVQGRG", "note": "[GLP-1 derivative of Example 123: [Aib8,Lys18,Glu22,Gln34]-GLP-1-(7-37)-peptide]", "ratio IC50 high HSA/IC50 low HSA": "> 1"}
{"binder": "H[Aib]EGTFTSDVSK([AEEA-AEEA-γGlu-12Ado-γGlu-Butanoyl(4-Ph)])YLEEQAAK([AEEA-AEEA-γGlu-12Ado-γGlu-Butanoyl(4-Ph)])EFIAWLVQGRG", "note": "[GLP-1 derivative of Example 113: [Aib8,Lys18,Glu22,Gln34]-GLP-1-(7-37)-peptide]", "ratio IC50 high HSA/IC50 low HSA": "> 1"}
{"binder": "HAEGTFTSDVSK([AEEA-AEEA-γGlu-C12 diacid])YLEEQAVREFIAK([AEEA-AEEA-γGlu-C12 diacid])LVG", "note": "[GLP-1 derivative of Example 11: [Lys18,Glu22,Val25,Arg26,Lys31,Gly34]-GLP-1-(7-34)-peptide]", "ratio IC50 high HSA/IC50 low HSA": "> 1"}
{"binder": "[Desaminohistidyl]AEGTFTSDVSK([AEEA-AEEA-γGlu-Decanoyl(10-(4-HOOC-PhO))])YLEEQAAK([AEEA-AEEA-γGlu-Decanoyl(10-(4-HOOC-PhO))])EFIAWLVQGRG", "note": "[GLP-1 derivative of Example 136: [Imp7,Lys18,Glu22,Gln34]-GLP-1-(7-37)-peptide]", "ratio IC50 high HSA/IC50 low HSA": "> 1"}
{"molecular_target": "T1, human GLP-1 receptor", "experiment": "SPA, displacement of 125I-GLP-1(7-36)NH2, 0.005% HSA", "units": {"IC50": "nM"}}
{"binder": "H[Aib]EGTFTSDVSK([AEEA-AEEA-γGlu-4‑(4-chlorophenyl)butanoyl])YLEEQAAK([AEEA-AEEA-γGlu-4‑(4-chlorophenyl)butanoyl])EFIAWLVQGRG", "note": "[GLP-1 derivative of Example 121: [Aib8,Lys18,Glu22,Gln34]-GLP-1-(7-37)-peptide]", "IC50": "< 1000"}
{"binder": "B1", "IC50": "< 1000"}
{"binder": "H[Aib]EGTFTSDVSK([AEEA-AEEA-γGlu-Aoc-γGlu-Butanoyl(4-Ph)])YLEEQAAK([AEEA-AEEA-γGlu-Aoc-γGlu-Butanoyl(4-Ph)])EFIAWLVQGRG", "note": "[GLP-1 derivative of Example 109: [Aib8,Lys18,Glu22,Gln34]-GLP-1-(7-37)-peptide]", "IC50": "< 1000"}
{"binder": "H[Aib]EGTFTSDVSK([AEEA-AEEA-γGlu-12Ado-γGlu-2‑phenylacetyl])YLEEQAAK([AEEA-AEEA-γGlu-12Ado-γGlu-2‑phenylacetyl])EFIAWLVQGRG", "note": "[GLP-1 derivative of Example 128: [Aib8,Lys18,Glu22,Gln34]-GLP-1-(7-37)-peptide]", "IC50": "< 1000"}
{"binder": "H[Aib]EGTFTSDVSK([AEEA-AEEA-γGlu-4‑(4-nitrophenyl)butanoyl])YLEEQAAK([AEEA-AEEA-γGlu-4‑(4-nitrophenyl)butanoyl])EFIAWLVQGRG", "note": "[GLP-1 derivative of Example 122: [Aib8,Lys18,Glu22,Gln34]-GLP-1-(7-37)-peptide]", "IC50": "< 1000"}
{"binder": "H[Aib]EGTFTSDVSK([AEEA-AEEA-γGlu-Hexanoyl(6-Ph)])YLEEQAAK([AEEA-AEEA-γGlu-Hexanoyl(6-Ph)])EFIAWLVQGRG", "note": "[GLP-1 derivative of Example 123: [Aib8,Lys18,Glu22,Gln34]-GLP-1-(7-37)-peptide]", "IC50": "< 1000"}
{"binder": "H[Aib]EGTFTSDVSK([AEEA-AEEA-γGlu-12Ado-γGlu-Butanoyl(4-Ph)])YLEEQAAK([AEEA-AEEA-γGlu-12Ado-γGlu-Butanoyl(4-Ph)])EFIAWLVQGRG", "note": "[GLP-1 derivative of Example 113: [Aib8,Lys18,Glu22,Gln34]-GLP-1-(7-37)-peptide]", "IC50": "< 1000"}
{"binder": "HAEGTFTSDVSK([AEEA-AEEA-γGlu-C12 diacid])YLEEQAVREFIAK([AEEA-AEEA-γGlu-C12 diacid])LVG", "note": "[GLP-1 derivative of Example 11: [Lys18,Glu22,Val25,Arg26,Lys31,Gly34]-GLP-1-(7-34)-peptide]", "IC50": "< 1000"}
{"binder": "[Desaminohistidyl]AEGTFTSDVSK([AEEA-AEEA-γGlu-Decanoyl(10-(4-HOOC-PhO))])YLEEQAAK([AEEA-AEEA-γGlu-Decanoyl(10-(4-HOOC-PhO))])EFIAWLVQGRG", "note": "[GLP-1 derivative of Example 136: [Imp7,Lys18,Glu22,Gln34]-GLP-1-(7-37)-peptide]", "IC50": "< 1000"}
